Experimental findings from patent US20210252150A1 are described below.

The target in test [1] is HA of A/California/04/2009 (H1N1) (influenza A virus (H1N1)) (UniProt P26140). Description: ELISA, recombinant HA. (In an ELISA, binding on a coated surface is turned into a signal by an enzyme label.)
The target of test [2] is HA of A/duck/Czechoslovakia/1956 (H4). Description: ELISA, recombinant HA.
Test [3] deals with HA of A/Hong Kong/1/1968 (H3N2) (influenza A virus (H3N2)) (UniProt Q91MA7).
The target of test [4] is HA of A/Hong Kong/1073/99 (H9) (influenza A virus (H9)).
For test [5], the target named is HA of A/Indonesia/5/2005 (H5N1) (influenza A virus (H5N1)).
Test [6] addresses HA of A/Netherlands/219/2003 (H7N7) (influenza A virus (H7N7)).
Test [7] addresses HA of A/Shanghai/2/2013 (H7N9) (influenza A virus (H7N9)).
Test [8] concerns the target HA of A/Singapore/1/1957 (H2) (influenza A virus (H2)) (UniProt Q67333).
Test [9] concerns the target HA of A/mallard duck/Astrakhan/263/1982 (H14N5) (influenza A virus (H14N5)).
The target of test [10] is HA of A/shearwater/Western Australia/2576/1979 (H15N9) (influenza A virus (H15N9)).

Consider CR6261 (antibody), for which the EC50 in test [1] turned out to be 0.012 mg/L; in [2], 0.023 mg/L.

As for “rFluA-20 heavy chain mutant C101A (antibody)”, the EC50 in test [3] stood at 0.13 mg/L; in [6] it was 0.17 mg/L; in test [8] it was 0.44 mg/L; in test [10] it was 0.11 mg/L. Besides, the EC50 fold over wild-type rFluA-20 in test [4], in [5], in [7] and in test [9] was greater than 100 fold each time.

As for “rFluA-20 light chain mutant N53A (antibody)”, the EC50 amounted to 0.17 mg/L in test [4], 0.05 mg/L in test [6], 0.87 mg/L in test [7] and 0.06 mg/L in test [10]. For the same substance, the EC50 fold over wild-type rFluA-20 in test [5] and in test [9] was greater than 100 fold each time.

Regarding “rFluA-20 light chain mutant Q55A (antibody)”, the EC50 in test [6] was 0.17 mg/L. This substance also registered an EC50 fold over wild-type rFluA-20 in test [10] greater than 100 fold.

“rFluA-20 light chain mutant Y49A (antibody)” gave an EC50 fold over wild-type rFluA-20 in [6] greater than 100 fold.

In general, EC50 refers to the concentration needed to bring the measured effect to its halfway point.
